# Results: patent publication US20230287120A1 (ALLOGENE THERAPEUTICS, published 2023)
# T1: human DLL3 extracellular domain (ECD) with C-terminal 8xHis tag and Avi tag (human, UniProt Q9NYJ7 27-492)
# T1 construct: extracellular domain; Expressed in Expi293, purified by IMAC and SEC; also called huDLL3; not shown: Avi tag
# T1 sequence: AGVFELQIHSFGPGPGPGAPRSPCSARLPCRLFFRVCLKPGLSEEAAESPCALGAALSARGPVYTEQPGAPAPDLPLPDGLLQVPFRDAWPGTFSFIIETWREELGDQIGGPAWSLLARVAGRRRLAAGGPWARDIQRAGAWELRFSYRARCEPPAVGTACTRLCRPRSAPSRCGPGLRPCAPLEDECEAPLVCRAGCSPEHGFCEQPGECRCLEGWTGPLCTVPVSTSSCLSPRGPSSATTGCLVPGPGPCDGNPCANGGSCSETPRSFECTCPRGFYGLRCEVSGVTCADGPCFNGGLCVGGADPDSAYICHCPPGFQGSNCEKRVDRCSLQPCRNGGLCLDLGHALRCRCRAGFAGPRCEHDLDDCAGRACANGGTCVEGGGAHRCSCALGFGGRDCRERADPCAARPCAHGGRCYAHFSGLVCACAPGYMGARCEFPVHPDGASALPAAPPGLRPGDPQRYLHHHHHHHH
# T2: EGF1-EGF6
# T2 construct: also called Human DLL3 EGF1-EGF6, N-terminal HA tag, on CHO cells
# T2 single chain: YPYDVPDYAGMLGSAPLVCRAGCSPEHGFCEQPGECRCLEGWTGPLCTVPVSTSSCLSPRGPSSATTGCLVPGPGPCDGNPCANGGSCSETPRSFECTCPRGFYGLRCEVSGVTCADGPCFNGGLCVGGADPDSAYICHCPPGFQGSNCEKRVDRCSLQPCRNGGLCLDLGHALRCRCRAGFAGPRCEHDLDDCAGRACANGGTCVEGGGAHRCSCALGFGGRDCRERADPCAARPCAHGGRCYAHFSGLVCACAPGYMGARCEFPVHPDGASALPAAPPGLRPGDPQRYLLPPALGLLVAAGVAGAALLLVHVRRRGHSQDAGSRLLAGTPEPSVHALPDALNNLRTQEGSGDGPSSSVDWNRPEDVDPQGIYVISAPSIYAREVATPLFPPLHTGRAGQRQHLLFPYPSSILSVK
# T3: EGF2-EGF6
# T3 construct: also called Human DLL3 EGF2-EGF6, N-terminal HA tag, on CHO cells
# T3 single chain: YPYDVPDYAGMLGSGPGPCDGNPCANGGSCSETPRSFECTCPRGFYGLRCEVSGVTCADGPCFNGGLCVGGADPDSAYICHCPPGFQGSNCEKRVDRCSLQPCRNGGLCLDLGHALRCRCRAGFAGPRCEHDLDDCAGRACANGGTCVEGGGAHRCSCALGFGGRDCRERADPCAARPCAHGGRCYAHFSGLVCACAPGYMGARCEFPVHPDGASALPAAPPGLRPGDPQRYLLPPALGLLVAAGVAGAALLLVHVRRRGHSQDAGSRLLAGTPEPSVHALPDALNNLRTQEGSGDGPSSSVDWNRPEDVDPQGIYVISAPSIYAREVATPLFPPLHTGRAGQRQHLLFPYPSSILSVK
# T4: DSL-EGF6
# T4 construct: also called Human DLL3 DSL-EGF6, N-terminal HA tag, on CHO cells
# T4 single chain: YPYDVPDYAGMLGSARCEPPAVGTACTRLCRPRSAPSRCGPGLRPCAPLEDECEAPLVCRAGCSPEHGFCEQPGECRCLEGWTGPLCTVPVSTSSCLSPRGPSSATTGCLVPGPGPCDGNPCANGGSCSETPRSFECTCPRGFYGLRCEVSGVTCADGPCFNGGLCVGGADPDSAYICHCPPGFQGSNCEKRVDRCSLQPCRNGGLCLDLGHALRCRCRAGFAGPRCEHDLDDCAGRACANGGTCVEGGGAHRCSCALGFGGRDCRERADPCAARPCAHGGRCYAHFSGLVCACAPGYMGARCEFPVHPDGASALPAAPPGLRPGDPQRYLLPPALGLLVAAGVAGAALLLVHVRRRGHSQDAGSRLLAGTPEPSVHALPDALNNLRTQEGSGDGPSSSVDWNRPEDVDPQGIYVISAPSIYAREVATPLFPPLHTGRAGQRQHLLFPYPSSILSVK
# T5: EGF6
# T5 construct: also called Human DLL3 EGF6, N-terminal HA tag, on CHO cells
# T5 single chain: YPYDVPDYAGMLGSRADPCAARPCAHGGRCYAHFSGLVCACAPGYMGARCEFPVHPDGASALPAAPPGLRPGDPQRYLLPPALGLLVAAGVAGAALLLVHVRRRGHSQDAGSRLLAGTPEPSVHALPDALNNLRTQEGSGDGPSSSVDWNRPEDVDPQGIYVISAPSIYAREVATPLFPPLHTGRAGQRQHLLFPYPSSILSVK
# T6: EGF5-EGF6
# T6 construct: also called Human DLL3 EGF5-EGF6, N-terminal HA tag, on CHO cells
# T6 single chain: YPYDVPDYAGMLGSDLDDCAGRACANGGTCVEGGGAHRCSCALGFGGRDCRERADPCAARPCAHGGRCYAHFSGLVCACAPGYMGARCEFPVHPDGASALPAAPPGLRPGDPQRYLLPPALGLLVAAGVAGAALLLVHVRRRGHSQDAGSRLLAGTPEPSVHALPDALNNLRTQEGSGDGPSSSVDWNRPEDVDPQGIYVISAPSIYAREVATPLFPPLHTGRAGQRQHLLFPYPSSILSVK
# T7: EGF4-EGF6
# T7 construct: also called Human DLL3 EGF4-EGF6, N-terminal HA tag, on CHO cells
# T7 single chain: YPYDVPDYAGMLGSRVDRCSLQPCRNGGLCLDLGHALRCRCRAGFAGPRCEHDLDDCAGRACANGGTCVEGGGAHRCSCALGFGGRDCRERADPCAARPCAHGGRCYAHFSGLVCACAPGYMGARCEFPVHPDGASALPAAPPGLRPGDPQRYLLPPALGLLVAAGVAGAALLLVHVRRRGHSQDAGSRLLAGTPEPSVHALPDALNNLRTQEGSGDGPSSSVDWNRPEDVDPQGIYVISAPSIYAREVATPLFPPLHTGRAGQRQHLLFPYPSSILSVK
# T8: EGF3-EGF6
# T8 construct: also called Human DLL3 EGF3-EGF6, N-terminal HA tag, on CHO cells
# T8 single chain: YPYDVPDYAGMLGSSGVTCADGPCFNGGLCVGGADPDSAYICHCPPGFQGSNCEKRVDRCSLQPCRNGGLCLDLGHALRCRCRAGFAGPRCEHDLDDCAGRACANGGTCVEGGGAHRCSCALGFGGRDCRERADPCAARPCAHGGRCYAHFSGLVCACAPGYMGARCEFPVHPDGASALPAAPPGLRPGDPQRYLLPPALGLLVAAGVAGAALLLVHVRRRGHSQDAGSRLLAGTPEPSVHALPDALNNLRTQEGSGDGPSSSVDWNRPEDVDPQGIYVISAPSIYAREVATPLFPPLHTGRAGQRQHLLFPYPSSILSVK
# B1: anti-DLL3 antibody 5E12 (IgG) (antibody, V domains shown)
# VH: EVQLVESGGGLVQPGGSLRLSCAASGFTFSSYDMHWVRQATGKGLEWVSAIGPAGDTYYPGSVKGRFTISRENAKNSLYLQMNSLRAGDTAVYYCARADPPYYYYGMDVWGQGTTVTVSS
# VL: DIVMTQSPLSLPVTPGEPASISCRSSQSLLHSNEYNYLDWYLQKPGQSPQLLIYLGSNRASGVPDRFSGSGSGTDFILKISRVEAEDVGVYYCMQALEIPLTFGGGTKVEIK
# notes: Full-length monoclonal antibody (IgG)
# B2: anti-DLL3 antibody 6D8 (IgG) (antibody, V domains shown)
# VH: QITLKESGPTLVKPTQTLTLTCTFSGFSLSTRGVGVGWIRQPPGKALEWLALIYWNDDKRYSPSLQTRLTITKDTPKNQVVLTMTNMDPVDTATYYCARSNWGNWYFALWGRGTLVTVSS
# VL: EIVLTQSPATLSLSPGERATLSCRASQSVSSYLAWYQQKPGQAPRLLIYDAFYRATGIPARFSGSGSGTDFTLTISSLEPEDFAVYYCQHRSNWPITFGQGTRLEIK
# notes: as for B1
# B3: anti-DLL3 antibody 26C8 (IgG) (antibody, V domains shown)
# VH: QVQLQESGPGLVKPSETLSLTCTVSDNSISNYYWSWIRQPPGKGLEWIAYIYYSGTTNYNPSLKSRVTISLDTSKNQFSLQLSSVTAADAAVYYCARVFHWGFAFDIWGQGTMVTVSS
# VL: EIVLTQSPGTLSLSPGERATLSCRASQRVSNTYLAWYQQNPGQAPRLLIYGASSRATGIPDRFSGSGSGTDFTLTISRLEPEDFAVYYCQQYGTSPLTFGGGTKVEIK
# notes: as for B1
# Key:
# [1] = biological target: T1, human DLL3 extracellular domain (ECD) …; assay: SPR (Biacore), 37 C; IgG captured on chip, human DLL3 ECD in solution; 1:1 Langmuir fit
# Experimental: The antibody binding kinetics were determined by surface plasmon resonance (Biacore™ surface plasmon resonance (SPR) system, GE Healthcare Bio-Sciences, Pittsburgh Pa.). The antibodies diluted in HBS-T+ running buffer (0.01 M HEPES pH 7.4, 0.15 M NaCl, 0.05% v/v Tween20, 1 mg/mL BSA) were captured on a CM4 chip immobilized with an antibody specific for the anti-DLL3 antibody constant domains. Purified DLL3 was serially diluted into HBS-T+, injected for 2 min at 30 uL/min and a dissociation time of 10 min then the surface regenerated with either 10 mM Glycine-HCl pH 1.7 or phosphoric acid between injections. […] Equilibrium dissociation constant (Kd) values are calculated as koff/kₒₙ.
# EGF1-EGF6 = biological target: T2, EGF1-EGF6; assay: flow cytometry on CHO cells with the HA tagged DLL3 construct, PE anti-mouse IgG
# Experimental: (§1) The samples were analyzed by flow cytometry. […] Signals from the PE channel are shown on the x-axis and counts are shown on the y-axis.
# EGF2-EGF6 = biological target: T3, EGF2-EGF6; assay: as above
# Experimental: as §1
# DSL-EGF6 = biological target: T4, DSL-EGF6; assay: as above
# Experimental: as §1
# EGF6 = biological target: T5, EGF6; assay: as above
# Experimental: as §1
# EGF5-EGF6 = biological target: T6, EGF5-EGF6; assay: as above
# Experimental: as §1
# EGF4-EGF6 = biological target: T7, EGF4-EGF6; assay: as above
# Experimental: as §1
# EGF3-EGF6 = biological target: T8, EGF3-EGF6; assay: as above
# Experimental: as §1
Binder,Kd [1] [nM],binding result (EGF1-EGF6),binding result (EGF2-EGF6),binding result (DSL-EGF6),binding result (EGF6),binding result (EGF5-EGF6),binding result (EGF4-EGF6),binding result (EGF3-EGF6)
B1,7.76,no binding,no binding,binds,no binding,no binding,no binding,no binding
B2,< 1.42,binds,no binding,binds,no binding,no binding,no binding,no binding
B3,5.54,binds,binds,binds,no binding,no binding,no binding,binds
